Test results: paper PMC7697101
No end group written: not given here.

Biological target: formyl peptide receptor 2 (Fpr2/ALX), murine (mouse (endogenous in C57BL/6 and STM mice)) (UniProt O88536)
Chain of UniProt O88536 (O88536 whole entry): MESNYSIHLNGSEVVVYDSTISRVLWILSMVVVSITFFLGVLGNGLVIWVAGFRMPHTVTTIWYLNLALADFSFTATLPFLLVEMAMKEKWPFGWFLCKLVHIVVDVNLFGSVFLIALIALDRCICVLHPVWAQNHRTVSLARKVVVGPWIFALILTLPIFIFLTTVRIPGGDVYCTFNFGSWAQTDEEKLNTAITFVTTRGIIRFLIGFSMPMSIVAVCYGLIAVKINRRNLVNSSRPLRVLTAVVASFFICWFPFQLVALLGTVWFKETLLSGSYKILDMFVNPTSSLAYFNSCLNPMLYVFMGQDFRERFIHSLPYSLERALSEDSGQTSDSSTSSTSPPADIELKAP

increase in blood flow (cessation time) in cerebral venules of sickle cell transgenic mice given AnxA1 (Ac2-26) 4 mg/kg vs. saline, light/dye thrombosis; mitigated by co-administration of Boc2 or WRW4: 63.5%
Binder: Ac-AMVSEFLKQAWFIENEEQEYVQTVK [AnxA1 mimetic peptide AnxA1_(Ac2-26)]
